Measured values taken from the supplement of paper PMC7125110.
± gives the standard error. For part of these data: This sample holds only a part of the variants without activity.

B1: glmS ribozyme (parent)
chain: AUAAAAGCGCCAGAACUACAGAAAUGUAGUUGACGAGGAGGAGGUUUAUCGAAUUUUCGGCGGAUGCCUCCAAA

Key:
Settings in all cases: with glucosamine-6-phosphate
[1] = variants of: B1; test: kcat; higher = faster cleavage; RNA array
In short: (§1)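 The measurements used barcoded ribozyme variants on sequenced MiSeq chips, transcribed in situ by E. coli RNA polymerase and tracked at 37 °C with a hybridised Cy3 probe. Glucosamine-6-phosphate, 40 μM to 10 mM in HEPES/KCl/Mg(OAc)2 buffer, was flowed in while tiles were imaged over ~14 h. Baseline-normalised signals, also normalised to non-cleaving reference variants, gave per-tile medians that were fit to one- or two-exponential decays for kobs. kcat and KM resulted from weighted Michaelis–Menten fits across concentrations.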

[2] = variants of: B1; test: KM; higher = weaker cofactor use; RNA array
In short: as §1

[3] = variants of: B1; test: self-cleavage kobs at 40 uM GlcN6P; higher = faster cleavage; RNA array
In short: as §1

[4] = variants of: B1; test: self-cleavage kobs at 160 uM GlcN6P; higher = faster cleavage; RNA array
In short: as §1

[5] = variants of: B1; test: self-cleavage kobs at 640 uM GlcN6P; higher = faster cleavage; RNA array
In short: as §1

[6] = variants of: B1; test: self-cleavage kobs at 2500 uM GlcN6P; higher = faster cleavage; RNA array
In short: as §1

[7] = variants of: B1; test: self-cleavage kobs at 10000 uM GlcN6P; higher = faster cleavage; RNA array
In short: as §1

| Variant | kcat [1] [s⁻¹] | KM [2] [µM] | self-cleavage kobs at 40 uM GlcN6P [3] [s⁻¹] | self-cleavage kobs at 160 uM GlcN6P [4] [s⁻¹] | self-cleavage kobs at 640 uM GlcN6P [5] [s⁻¹] | self-cleavage kobs at 2500 uM GlcN6P [6] [s⁻¹] | self-cleavage kobs at 10000 uM GlcN6P [7] [s⁻¹] |
| --- | --- | --- | --- | --- | --- | --- | --- |
| U55A | 0.0533 ± 0.012 | 1770 ± 530 | 0.00134 ± 4.9e-05 | 0.0039 ± 0.00028 | 0.0133 ± 0.00067 | 0.025 ± 0.0015 | 0.0555 ± 0.0025 |
| G59U C61A C67A | 1.63e-05 ± 4.2e-06 |  |  |  |  |  |  |
| C61G C67G | 1.22e-05 ± 1.5e-06 |  |  |  |  |  |  |
| U55G U69G | 7.83e-05 ± 1.5e-05 |  |  | 8.02e-05 ± 1.9e-05 | 8.9e-05 ± 1.9e-05 |  | 6.23e-05 ± 1.7e-05 |
| U55G U69C | 0.000334 ± 4.6e-05 |  | 0.000197 ± 4.3e-05 | 0.000229 ± 6.1e-05 | 0.000303 ± 6.9e-05 | 0.000289 ± 6.4e-05 | 0.000457 ± 8e-05 |
| C58U A64G | 0.00011 ± 1.9e-05 |  |  |  |  | 5.74e-05 ± 1.1e-05 | 8.51e-05 ± 1.1e-05 |
| G59U G62U C67G | < 1e-05 |  |  | < 1e-05 |  |  |  |
| U55C U57G | 3.92e-05 ± 2.9e-06 | 840 ± 320 | < 1e-05 | < 1e-05 |  | 2.98e-05 ± 1.5e-05 |  |
| U57G C58G C68U | 4.52e-05 ± 1.6e-05 |  |  |  | 7.15e-05 ± 2.1e-05 |  |  |
| U55G G60A | 2.4e-05 ± 6.2e-07 | 1810 ± 130 |  |  |  |  |  |
| U57G C71A | 3.11e-05 ± 9.7e-06 |  |  |  | 4.65e-05 ± 1.5e-05 | 3.2e-05 ± 1.5e-05 |  |
| U55G C70A | 0.000145 ± 2.6e-05 |  | 5.03e-05 ± 1.3e-05 | 5.52e-05 ± 1.4e-05 | 0.00015 ± 3e-05 | 0.000147 ± 2.4e-05 | 0.000131 ± 2.6e-05 |
| U55G C70G | 0.000127 ± 2.5e-05 |  | 2.75e-05 ± 1.4e-05 | 7.54e-05 ± 1.6e-05 | 0.00014 ± 1.9e-05 | 0.000184 ± 3.8e-05 | 9.38e-05 ± 1.8e-05 |
| G59A C67U | 4.36e-05 ± 1.3e-05 |  |  |  |  |  | 3.54e-05 ± 9.1e-06 |
| C58G C61G | 3.21e-05 ± 1e-05 |  |  |  | 5.63e-05 ± 2.4e-05 |  |  |
| U56A U57G | 0.000127 ± 3.4e-05 |  |  |  | 3.45e-05 ± 1.3e-05 | 4.92e-05 ± 1e-05 | 0.000102 ± 2e-05 |
| G62U C67A | < 1e-05 |  | < 1e-05 |  |  |  | < 1e-05 |
| C58G G60U | < 1e-05 |  | < 1e-05 | < 1e-05 | < 1e-05 | < 1e-05 |  |
| G60C C70U | < 1e-05 |  |  | < 1e-05 |  |  |  |
| C58A C71A | 5.74e-05 ± 1e-05 |  |  |  | 3.29e-05 ± 1.3e-05 | 7.33e-05 ± 1.5e-05 | 4.88e-05 ± 9.7e-06 |
| U54G G59A | 9.1e-05 ± 6.5e-06 | 858 ± 300 |  |  |  | 6.93e-05 ± 2.3e-05 | 8.23e-05 ± 3e-05 |

| Variant | kcat [1] [s⁻¹] | KM [2] [µM] | self-cleavage kobs at 40 uM GlcN6P [3] [s⁻¹] | self-cleavage kobs at 160 uM GlcN6P [4] [s⁻¹] | self-cleavage kobs at 640 uM GlcN6P [5] [s⁻¹] | self-cleavage kobs at 2500 uM GlcN6P [6] [s⁻¹] | self-cleavage kobs at 10000 uM GlcN6P [7] [s⁻¹] |
| --- | --- | --- | --- | --- | --- | --- | --- |
| U54G G59U | 3.86e-05 ± 1.5e-06 | 544 ± 170 |  |  |  | 3.03e-05 ± 9.3e-06 | 3.71e-05 ± 6.4e-06 |
| U54C G62C | < 1e-05 | 133 ± 48 | < 1e-05 | < 1e-05 | < 1e-05 | < 1e-05 |  |
| U54C U65C | 0.000618 ± 0.00021 |  |  |  | 0.000249 ± 6.5e-05 | 0.000743 ± 0.00016 | 0.000465 ± 0.00013 |
| U55C G60U | 1.04e-05 ± 3.4e-06 |  | < 1e-05 | < 1e-05 | < 1e-05 |  | < 1e-05 |
| U55C C58A | 0.000437 ± 0.00015 |  |  | 4.03e-05 ± 1.3e-05 | 9.55e-05 ± 1.2e-05 | 0.000175 ± 2.3e-05 | 0.000455 ± 6.7e-05 |
| G59C C70G | 1.6e-05 ± 3.6e-06 |  |  |  |  |  |  |
| U56C U69C | 3.67e-05 ± 7.4e-06 |  | < 1e-05 |  |  |  | 3.13e-05 ± 1.3e-05 |
| U57A C67G | 5.87e-05 ± 1.1e-05 |  |  |  | 5.39e-05 ± 1.5e-05 | 3.77e-05 ± 1.1e-05 | 7.6e-05 ± 1.1e-05 |
| G59A U65C | 1.55e-05 ± 5.6e-06 |  |  |  |  |  |  |
| U57G C58G | 3.94e-05 ± 1.6e-05 |  |  |  | 7.15e-05 ± 2.3e-05 | 5.55e-05 ± 2e-05 |  |
| G60A A64G | 2.24e-05 ± 4.8e-07 | 1390 ± 160 |  |  |  |  |  |
| G59U C61G | < 1e-05 |  |  |  |  |  | < 1e-05 |
| U54C C67G | 0.000821 ± 0.00019 | 534 ± 220 | 5.95e-05 ± 1.1e-05 | 0.000179 ± 2.6e-05 | 0.000519 ± 7.3e-05 | 0.000553 ± 8.6e-05 | 0.00137 ± 0.00026 |
| U54C C67A | 0.00598 ± 0.0014 | 1580 ± 590 | 0.000198 ± 3.2e-05 | 0.000315 ± 0.00012 | 0.00199 ± 0.00058 |  | 0.00521 ± 0.00071 |
| U56G U57G | < 1e-05 |  |  |  |  |  | < 1e-05 |
| C58A A64G C71A | 2.69e-05 ± 7.4e-06 |  |  |  |  |  |  |
| G60A G63C | < 1e-05 |  |  | < 1e-05 |  | < 1e-05 | < 1e-05 |
| G62C U69G | 1.62e-05 ± 2.9e-06 |  |  |  |  |  |  |
| G62C C68A | 1.29e-05 ± 3.6e-06 |  |  |  |  |  |  |
| U56G G59A | 5.14e-05 ± 3e-06 | 1920 ± 460 |  |  |  | 3e-05 ± 8.2e-06 | 4.3e-05 ± 6.1e-06 |
| U56G G59C | < 1e-05 |  | < 1e-05 | < 1e-05 | < 1e-05 |  |  |
